Experiments:
human IL-17A (human) = human IL-17A (human) (UniProt Q16552); assay: cell-based or functional assay
human TNF-α (human) = human TNF-α (human) (UniProt P01375); assay: cell-based or functional assay
UniProt P01375, sequence (P01375 77-233 limits assumed): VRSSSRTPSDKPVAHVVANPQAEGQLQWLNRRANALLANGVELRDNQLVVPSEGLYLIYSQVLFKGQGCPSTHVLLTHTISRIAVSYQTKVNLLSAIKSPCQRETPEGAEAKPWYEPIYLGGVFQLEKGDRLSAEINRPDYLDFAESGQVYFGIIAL

UniProt Q16552, sequence (Q16552 24-155 limits assumed): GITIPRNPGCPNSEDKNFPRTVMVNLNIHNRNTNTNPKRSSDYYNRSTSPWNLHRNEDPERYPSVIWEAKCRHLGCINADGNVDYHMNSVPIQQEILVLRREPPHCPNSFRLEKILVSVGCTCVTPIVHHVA

Substance: LY3114062 (bispecific antibody)
- IC50, hIL-6 secretion of commercial RA-FLS cells stimulated with IL-17A and TNF-α (co-neutralization) (human IL-17A (human)): 0.0149 nM
- IC50, hIL-6 secretion of commercial RA-FLS cells stimulated with hIL-17A (human IL-17A (human)): 0.371 nM
- IC50, hIL-6 secretion of commercial RA-FLS cells stimulated with IL-17A and TNF-α (co-neutralization) (human TNF-α (human)): 0.0149 nM
- IC50, hIL-6 secretion of commercial RA-FLS cells stimulated with hTNF-α (human TNF-α (human)): 0.0186 nM

Source: US20220098297A1
